From IntAct's records for PubMed 19732724

B1: Tensin-3 (Homo sapiens), Q68CZ2 (parent)
chain: MEEGHGLDLTYITERIIAVSFPAGCSEESYLHNLQEVTRMLKSKHGDNYLVLNLSEKRYDLTKLNPKIMDVGWPELHAPPLDKMCTICKAQESWLNSNLQHVVVIHCRGGKGRIGVVISSYMHFTNVSASADQALDRFAMKKFYDDKVSALMQPSQKRYVQFLSGLLSGSVKMNASPLFLHFVILHGTPNFDTGGVCRPFLKLYQAMQPVYTSGIYNVGPENPSRICIVIEPAQLLKGDVMVKCYHKKYRSATRDVIFRLQFHTGAVQGYGLVFGKEDLDNASKDDRFPDYGKVELVFSATPEKIQGSEHLYNDHGVIVDYNTTDPLIRWDSYENLSADGEVLHTQGPVDGSLYAKVRKKSSSDPGIPGGPQAIPATNSPDHSDHTLSVSSDSGHSTASARTDKTEERLAPGTRRGLSAQEKAELDQLLSGFGLEDPGSSLKEMTDARSKYSGTRHVVPAQVHVNGDAALKDRETDILDDEMPHHDLHSVDSLGTLSSSEGPQSAHLGPFTCHKSSQNSLLSDGFGSNVGEDPQGTLVPDLGLGMDGPYERERTFGSREPKQPQPLLRKPSVSAQMQAYGQSSYSTQTWVRQQQMVVAHQYSFAPDGEARLVSRCPADNPGLVQAQPRVPLTPTRGTSSRVAVQRGVGSGPHPPDTQQPSPSKAFKPRFPGDQVVNGAGPELSTGPSPGSPTLDIDQSIEQLNRLILELDPTFEPIPTHMNALGSQANGSVSPDSVGGGLRASSRLPDTGEGPSRATGRQGSSAEQPLGGRLRKLSLGQYDNDAGGQLPFSKCAWGKAGVDYAPNLPPFPSPADVKETMTPGYPQDLDIIDGRILSSKESMCSTPAFPVSPETPYVKTALRHPPFSPPEPPLSSPASQHKGGREPRSCPETLTHAVGMSESPIGPKSTMLRADASSTPSFQQAFASSCTISSNGPGQRRESSSSAERQWVESSPKPMVSLLGSGRPTGSPLSAEFSGTRKDSPVLSCFPPSELQAPFHSHELSLAEPPDSLAPPSSQAFLGFGTAPVGSGLPPEEDLGALLANSHGASPTPSIPLTATGAADNGFLSHNFLTVAPGHSSHHSPGLQGQGVTLPGQPPLPEKKRASEGDRSLGSVSPSSSGFSSPHSGSTISIPFPNVLPDFSKASEAASPLPDSPGDKLVIVKFVQDTSKFWYKADISREQAIAMLKDKEPGSFIVRDSHSFRGAYGLAMKVATPPPSVLQLNKKAGDLANELVRHFLIECTPKGVRLKGCSNEPYFGSLTALVCQHSITPLALPCKLLIPERDPLEEIAESSPQTAANSAAELLKQGAACNVWYLNSVEMESLTGHQAIQKALSITLVQEPPPVSTVVHFKVSAQGITLTDNQRKLFFRRHYPVNSVIFCALDPQDRKWIKDGPSSKVFGFVARKQGSATDNVCHLFAEHDPEQPASAIVNFVSKVMIGSPKKV
partner: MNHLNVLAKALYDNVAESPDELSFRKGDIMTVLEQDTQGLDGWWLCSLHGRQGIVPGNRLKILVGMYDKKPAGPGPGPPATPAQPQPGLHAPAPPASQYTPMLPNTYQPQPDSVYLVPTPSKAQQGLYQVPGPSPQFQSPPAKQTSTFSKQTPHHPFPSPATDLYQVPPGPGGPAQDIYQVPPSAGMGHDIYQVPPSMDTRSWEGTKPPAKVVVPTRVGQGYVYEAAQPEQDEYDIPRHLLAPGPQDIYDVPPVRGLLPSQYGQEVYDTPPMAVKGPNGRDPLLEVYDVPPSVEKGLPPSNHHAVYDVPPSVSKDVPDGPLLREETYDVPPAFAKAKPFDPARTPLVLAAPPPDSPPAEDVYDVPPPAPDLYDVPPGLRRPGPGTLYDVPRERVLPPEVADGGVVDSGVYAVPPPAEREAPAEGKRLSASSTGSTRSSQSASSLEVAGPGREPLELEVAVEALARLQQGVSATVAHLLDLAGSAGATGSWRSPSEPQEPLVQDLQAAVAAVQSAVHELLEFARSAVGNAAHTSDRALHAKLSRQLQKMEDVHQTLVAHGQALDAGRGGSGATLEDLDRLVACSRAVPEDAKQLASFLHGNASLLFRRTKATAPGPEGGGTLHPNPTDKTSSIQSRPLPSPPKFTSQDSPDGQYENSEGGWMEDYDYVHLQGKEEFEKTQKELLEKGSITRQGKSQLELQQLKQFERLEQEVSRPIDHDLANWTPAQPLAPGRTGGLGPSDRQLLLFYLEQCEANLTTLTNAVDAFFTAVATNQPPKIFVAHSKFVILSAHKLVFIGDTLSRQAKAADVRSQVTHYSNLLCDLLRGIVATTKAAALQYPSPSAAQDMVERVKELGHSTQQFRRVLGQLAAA

Variants of: B1
Conditions: with bcar1_human BCAR1, P56945

Variant	effect of a mutation on the interaction
Y1173F;Y1206F	decreasing interaction
